{
  "source": "patent US20140031525A1",
  "about": "“MUTANT G-PROTEIN COUPLED RECEPTOR PROTEINS AND METHODS FOR PRODUCING THEM” (Heptares Therapeutics Limited, priority 2011, published 2014)",
  "molecules": {"B1": {"name": "A2A-StaR2: human adenosine A2A receptor with mutations A54L, T88A, K122A, V239A, R107A, L202A, L235A, S277A (protein, UniProt P29274 1-412, looked up, variant A54L T88A K122A V239A R107A L202A L235A S277A)", "Adenosine receptor A2a": "MPIMGSSVYITVELAIAVLAILGNVLVCWAVWLNSNLQNVTNYFVVSLAAADILVGVLAIPFAITISTGFCAACHGCLFIACFVLVLAQSSIFSLLAIAIDRYIAIAIPLRYNGLVTGTRAAGIIAICWVLSFAIGLTPMLGWNNCGQPKEGKNHSQGCGEGQVACLFEDVVPMNYMVYFNFFACVLVPLLLMLGVYLRIFAAARRQLKQMESQPLPGERARSTLQKEVHAAKSAAIIAGLFALCWLPLHIINCFTFFCPDCSHAPLWLMYLAIVLAHTNSVVNPFIYAYRIREFRQTFRKIIRSHVLRQQEPFKAAGTSARVLAAHGSDGEQVSLRLNGHPPGVWANGSAPHPERRPNGYALGLVSGGSAQESQGNTGLPDVELLSHELKGVCPEPPGLDDPLAQDGAGVS"}},
  "key": {"[1]": {"experiment": "Thermostability assay of detergent-solubilised receptor by [3H]-ZM241385 binding", "type": "physicochemical, human", "details": "in 0.1% decylmaltoside, 30 min heating", "protocol": "FIG. 1: Thermostability of the adenosine A2A receptor alone, in combination with T4 lysozyme fusion or with thermostabilising mutations. Receptors were solubilised from transiently transfected cells using 0.025% DDM. Samples were heated at the specified temperature for 30 minutes, quenched on ice and the amount of receptor remaining was determined by a single-point binding assay using 100 nM [^3H]-ZM-241,385. Data is shown for the wild type A2a receptor (circles), A2A-T4L (squares), A2A-StaR1 (previously Rant21, upright triangles), A2A-T4 engineered to include the A2A-StaR1 mutations in combination with the T4L fusion (A54L^2.52/T88A^3.36/K122A^4.43 N239A^6.41) (inverted triangles) and vs A2a-StaR2 (diamonds).\nTransfected HEK293T cells were resuspended in ice cold buffer [50 mM Tris pH7.4; 400 mM NaCl; 1% DDM and protease inhibitors (Complete, Roche)]. After incubation for 1 h at 4° C., samples were centrifuged (16,000×g, 20 min, 4° C.) and the supernatant was detergent exchanged into 0.1% decylmaltoside (DM) from Ni-NTA resin.\nThermostability was assessed by incubating with [^3H]-ZM241385 radioligand (100 nM) at increasing temperatures for 30 min followed by a 5 minutes incubation on ice. Receptor bound and free radioligand were separated by gel filtration as previously described'"}, "G proteins": {"system": "G proteins", "experiment": "G protein activation by the engineered receptor", "type": "biochemical"}},
  "data": [
    {"molecule": "B1", "values": [
      {"measurement": "apparent thermostability", "setting": "[1]", "value": 47, "unit": "°C"},
      {"measurement": "G protein activation", "setting": "G proteins", "value": "no longer activated G proteins"}
    ]}
  ]
}
